B1: gB-Ecto.H516P.L531E (HSV-1 glycoprotein B ectodomain stabilized in the prefusion conformation) (domain or fragment)
chain: not shown
modifications: N-linked glycans (densities seen at 141, 398, 430 and 674)
B2: D48 Fab (Fab, V domains shown)
VH: EVQLVETGGGVVRPGRSLRLSCTTSGFSFSGSAMHWVRQAPGKGLEWVAVISHDGNIIQYHDSVKGRFTISRDNSKNVLLLQMNSLRVDDTAMYYCARDVWLLPATISYAFDFWGQGTMVTVSS
VL: VIWMTQSPPSLSASIGDTVTITCRASQGISNSIAWYQRRPGKAPELLVYAAYRLQSGVPSRLSGSGSGAEYTLTIKNMQPEDFATYYCQQYYDNPLTFGGGTKVEIK
B3: D48 Fab (Fab, V domains shown)
VH: B2 VH
VL: B2 VL
modifications: engineered disulfide A240C-E607C; N-linked glycans (densities seen at 141, 398, 430 and 674)
B4: PILRα_G78 ectodomain (paired immunoglobulin-like type 2 receptor alpha, HSV-1 gB co-receptor, with R78G) (receptor)
chain: QPSGSTGSGPSYLYGVTQPKHLSASMGGSVEIPFSFYYPWELATAPDVRISWRRGHFHGQSFYSTRPPSIHKDYVNRLFLNWTEGQKSGFLRISNLQKQDQSVYFCRVELDTRSSGRQQWQSIEGTKLSITQAVTTTTQRPSSMTTTWRLSSTTTTTGLRVTQGKRRSDSWHISLETA
B5: PILRα_G78 ectodomain (paired immunoglobulin-like type 2 receptor alpha, HSV-1 gB co-receptor, with R78G) (receptor)
chain: B4 chain
modifications: engineered disulfide A240C-E607C; N-linked glycans (densities seen at 141, 398, 430 and 674)

Legend:
Assay in all cases: SPR
DL16 = target: DL16
SS10 = target: SS10
SS55 = target: SS55
[1] = target: B1
[2] = target: T1, gB-Ecto.H516P (HSV-1 glycoprotein B ectodomain with H516P and an appended foldon; postfusion) (HSV-1 KOS strain, UniProt P06437 31-728, H516P, N-linked glycans (densities seen at 141, 398, 430 and 674))
[3] = target: B1; remark: listed apart in the source
[4] = target: T1, gB-Ecto.H516P (HSV-1 glycoprotein B …); remark: listed apart in the source
[5] = target: T2, gB-Ecto.H516P.L531E.DS (HSV-1 glycoprotein B ectodomain stabilized in the prefusion conformation with the … (HSV-1 KOS strain, UniProt P06437 31-728, H516P | L531E | A240C | E607C))
[6] = target: T2, gB-Ecto.H516P.L531E.DS (HSV-1 …); remark: listed apart in the source

Row | Binder | koff [1] | koff [2] | Kd [3] | Kd [4] | koff [5] | Kd [6] | further results
1 | B1 | – | – | – | – | – | – | Kd (DL16): 28.2 nM; koff (DL16): 0.0013 s⁻¹; Kd (SS10): 1.03 nM; koff (SS10): 5.6e-05 s⁻¹; Kd (SS55): 7.47 nM; koff (SS55): 0.000208 s⁻¹
2 | B2 | 1.08e-05 s⁻¹ | 4.06e-05 s⁻¹ | 0.0272 nM | 0.252 nM | – | – | –
3 | B3 | – | – | – | – | 2.18e-05 s⁻¹ | 0.0827 nM | –
4 | B4 | 0.34 s⁻¹ | 0.66 s⁻¹ | 1600 nM | 2000 nM | – | – | –
5 | B5 | – | – | – | – | 0.33 s⁻¹ | 1800 nM | –

Source: publication PMC12578645 (2025)
